Experimental data from patent US20120316071A1 (published 2012).
Positions count from the first letter of the chain named. Names and notes keep the numbering of the source. Blank lines part the entries; values can stand above or below the binder they belong to.

Assays:
[1] = target: T1, rHuman Notch-1/Fc Chimera, CF (R&D Systems Cat#3647-TK) (human, UniProt P46531 19-526); test: ECL Multispot (MSD) assay, antigen spotted on plate, 10 nM Fab; blank spot 378
T1 construct: Bought recombinant Fc chimera; Fc part of the bought chimera not given

[2] = target: T2, rHuman EGF R/Fc Chimera, CF (R&D Systems Cat#344-ER) (human, UniProt P00533 25-645); test: as above
T2 construct: Bought recombinant Fc chimera; also called epidermal growth factor receptor; Fc part of the bought chimera not given

[3] = target: T3, rHuman IGF-1 sR, CF (R&D Systems Cat#391-GR) (human, UniProt P08069 31-932); test: as above
T3 construct: Bought soluble receptor; also called insulin-like growth factor-1 soluble receptor

[4] = target: T4, rHuman HGF R/c-MET/Fc Chimera, CF (R&D Systems Cat#358-MT/CF) (human, UniProt P08581 25-932); test: as above
T4 construct: Bought recombinant Fc chimera; also called HGF R/Fc; hepatocyte growth factor receptor; Fc part of the bought chimera not given
T4 sequence (P08581 25-932, change not shown): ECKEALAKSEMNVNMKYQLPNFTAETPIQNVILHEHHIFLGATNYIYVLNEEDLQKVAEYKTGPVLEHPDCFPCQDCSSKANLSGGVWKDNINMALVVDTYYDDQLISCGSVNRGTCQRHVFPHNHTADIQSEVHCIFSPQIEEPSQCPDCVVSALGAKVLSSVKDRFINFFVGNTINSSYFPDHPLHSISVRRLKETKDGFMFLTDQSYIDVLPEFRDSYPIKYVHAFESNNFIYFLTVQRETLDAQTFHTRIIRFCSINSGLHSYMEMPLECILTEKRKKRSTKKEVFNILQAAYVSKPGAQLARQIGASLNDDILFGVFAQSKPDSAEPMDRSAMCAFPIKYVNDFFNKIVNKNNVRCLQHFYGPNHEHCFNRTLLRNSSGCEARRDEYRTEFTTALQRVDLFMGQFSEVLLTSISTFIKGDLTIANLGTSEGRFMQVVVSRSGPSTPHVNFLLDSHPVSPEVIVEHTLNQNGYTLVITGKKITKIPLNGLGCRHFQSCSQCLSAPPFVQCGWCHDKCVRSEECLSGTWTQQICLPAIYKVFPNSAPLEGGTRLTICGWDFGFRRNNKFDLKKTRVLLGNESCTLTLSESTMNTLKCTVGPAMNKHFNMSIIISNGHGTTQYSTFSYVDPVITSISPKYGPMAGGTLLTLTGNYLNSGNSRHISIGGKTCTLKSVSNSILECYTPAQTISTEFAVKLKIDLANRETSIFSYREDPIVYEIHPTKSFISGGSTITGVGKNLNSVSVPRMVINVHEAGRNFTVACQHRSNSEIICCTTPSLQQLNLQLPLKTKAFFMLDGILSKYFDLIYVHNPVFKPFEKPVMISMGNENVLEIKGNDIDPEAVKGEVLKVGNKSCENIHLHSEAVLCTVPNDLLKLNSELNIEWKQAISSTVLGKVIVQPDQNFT

[5] = target: T5, rHuman Erythropoietin R/Fc Chimera, CF (R&D Systems Cat#963-ER) (human, UniProt P19235 25-250); test: as above
T5 construct: Bought recombinant Fc chimera; also called EPO R; EPO R/Fc; Fc part of the bought chimera not given
T5 sequence (looked up): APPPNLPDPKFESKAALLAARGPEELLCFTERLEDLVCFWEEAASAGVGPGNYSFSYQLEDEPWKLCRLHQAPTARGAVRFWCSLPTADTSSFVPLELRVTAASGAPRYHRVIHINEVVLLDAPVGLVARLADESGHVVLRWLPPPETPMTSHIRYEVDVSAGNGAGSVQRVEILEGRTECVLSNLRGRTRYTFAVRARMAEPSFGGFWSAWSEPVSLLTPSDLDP

[6] = target: T6, rHuman CD44/Fc Chimera, CF (R&D Systems Cat#3660-CD) (human, UniProt P16070 21-220); test: as above
T6 construct: Bought recombinant Fc chimera; Fc part of the bought chimera not given

[7] = target: T7, Recombinant Human DLL4 (R&D Systems Cat#1506-D4/CF) (human, UniProt Q9NR61 27-524); test: as above
T7 construct: Bought recombinant protein; also called delta-like protein 4; rHuman DLL4

[8] = target: T8, rHuman ErbB2/Fc Chimera, CF (R&D Systems Cat#1129-ER) (human, UniProt P04626 23-652); test: as above
T8 construct: Bought recombinant Fc chimera; also called human epidermal growth factor 2 receptor; Fc part of the bought chimera not given

[9] = target: T9, rHuman P-Cadherin/Fc Chimera, CF (R&D Systems Cat#861-PC) (human, UniProt P22223 108-654); test: as above
T9 construct: Bought recombinant Fc chimera; Fc part of the bought chimera not given

[10] = target: T1, rHuman Notch-1/Fc Chimera, CF (R&D …); test: ECL Multispot (MSD) assay, antigen spotted on plate, 10 nM Fab; blank spot 271
[11] = target: T2, rHuman EGF R/Fc Chimera, CF (R&D …); test: as above
[12] = target: T3, rHuman IGF-1 sR, CF (R&D Systems …); test: as above
[13] = target: T4, rHuman HGF R/c-MET/Fc Chimera, CF (R&D …); test: as above
[14] = target: T5, rHuman Erythropoietin R/Fc Chimera, CF …; test: as above
[15] = target: T6, rHuman CD44/Fc Chimera, CF (R&D Systems …); test: as above
[16] = target: T7, Recombinant Human DLL4 (R&D Systems …); test: as above
[17] = target: T8, rHuman ErbB2/Fc Chimera, CF (R&D …); test: as above
[18] = target: T9, rHuman P-Cadherin/Fc Chimera, CF (R&D …); test: as above
[19] = target: T1, rHuman Notch-1/Fc Chimera, CF (R&D …); test: ECL Multispot (MSD) assay, antigen spotted on plate, 10 nM Fab; blank spot 296
[20] = target: T2, rHuman EGF R/Fc Chimera, CF (R&D …); test: as above
[21] = target: T3, rHuman IGF-1 sR, CF (R&D Systems …); test: as above
[22] = target: T4, rHuman HGF R/c-MET/Fc Chimera, CF (R&D …); test: as above
[23] = target: T5, rHuman Erythropoietin R/Fc Chimera, CF …; test: as above
[24] = target: T6, rHuman CD44/Fc Chimera, CF (R&D Systems …); test: as above
[25] = target: T7, Recombinant Human DLL4 (R&D Systems …); test: as above
[26] = target: T8, rHuman ErbB2/Fc Chimera, CF (R&D …); test: as above
[27] = target: T9, rHuman P-Cadherin/Fc Chimera, CF (R&D …); test: as above
[28] = target: T1, rHuman Notch-1/Fc Chimera, CF (R&D …); test: ECL Multispot (MSD) assay, antigen spotted on plate, 10 nM Fab; blank spot 302
[29] = target: T2, rHuman EGF R/Fc Chimera, CF (R&D …); test: as above
[30] = target: T3, rHuman IGF-1 sR, CF (R&D Systems …); test: as above
[31] = target: T4, rHuman HGF R/c-MET/Fc Chimera, CF (R&D …); test: as above
[32] = target: T5, rHuman Erythropoietin R/Fc Chimera, CF …; test: as above
[33] = target: T6, rHuman CD44/Fc Chimera, CF (R&D Systems …); test: as above
[34] = target: T7, Recombinant Human DLL4 (R&D Systems …); test: as above
[35] = target: T8, rHuman ErbB2/Fc Chimera, CF (R&D …); test: as above
[36] = target: T9, rHuman P-Cadherin/Fc Chimera, CF (R&D …); test: as above

ECL signal [1]: 473
ECL signal [2]: 435
ECL signal [3]: 395
ECL signal [4]: 419
ECL signal [5]: 429
ECL signal [6]: 457
ECL signal [7]: 131000
ECL signal [8]: 299
ECL signal [9]: 434
B1: Fab VH1-46_IGHD6-6*01_IGHJ1*01 S102A/S103P/S104F/H111F S84G & L6_IGKJ1*01 (Fab, V domains shown)
VH: QVQLVQSGAEVKKPGASVKVSCKASGYTFTSYYMHWVRQAPGQGLEWMGIINPSGGSTSYAQKFQGRVTMTRDTSTSTVYMELGSLRSEDTAVYYCAREEYAPFSAEYFQFWGQGTLVTVSS
VL: not shown
notes: Fab expressed in E. coli: VH joined to CH1 from Plasmid A (with His6 and Flag tags), VL joined to kappa CL from Plasmid C; also called APFF S84G

ECL signal [10]: 309
ECL signal [11]: 337
ECL signal [12]: 324
ECL signal [13]: 375
ECL signal [14]: 415
ECL signal [15]: 251
ECL signal [16]: 135000
ECL signal [17]: 307
ECL signal [18]: 167
B2: Fab VH1-46_IGHD6-6*01_IGHJ1*01 S102A/S103P/S104F/H111F S84N & L6_IGKJ1*01 (Fab, V domains shown)
VH: B1 VH with G84N
VL: not shown
notes: Fab expressed in E. coli: VH joined to CH1 from Plasmid A (with His6 and Flag tags), VL joined to kappa CL from Plasmid C; also called APFF S84N

ECL signal [19]: 416
ECL signal [20]: 347
ECL signal [21]: 373
ECL signal [22]: 255
ECL signal [23]: 288
ECL signal [24]: 372
ECL signal [25]: 122000
ECL signal [26]: 311
ECL signal [27]: 357
B3: Fab VH1-46_IGHD6-6*01_IGHJ1*01 S102A/S103P/S104F/H111F S84Q & L6_IGKJ1*01 (Fab, V domains shown)
VH: B1 VH with G84Q
VL: not shown
notes: Fab expressed in E. coli: VH joined to CH1 from Plasmid A (with His6 and Flag tags), VL joined to kappa CL from Plasmid C; also called APFF S84Q

ECL signal [28]: 331
ECL signal [29]: 306
ECL signal [30]: 353
ECL signal [31]: 374
ECL signal [32]: 318
ECL signal [33]: 382
ECL signal [34]: 138000
ECL signal [35]: 301
ECL signal [36]: 319
B4: Fab VH1-46_IGHD6-6*01_IGHJ1*01 S102A/S103P/S104F/H111F S84H & L6_IGKJ1*01 (Fab, V domains shown)
VH: B1 VH with G84H
VL: not shown
notes: Fab expressed in E. coli: VH joined to CH1 from Plasmid A (with His6 and Flag tags), VL joined to kappa CL from Plasmid C; also called APFF S84H
